Experiment: soluble on expression in E. coli; label from the status in PepcDB or PDB records

Row | Sequence | soluble on expression in E. coli
1 | MPVLHNRISNDALKAKMLAESEPRTTISFYKYFHIADPKATRDALYQLFTALNVFGRVYLAHEGINAQISVPASNVETFRAQLYAFDPALEGLRLNIALDDDGKSFWVLRMKVRDRIVADGIDDPHFDASNVGEYLQAAEVNAMLDDPDALFIDMRNHYEYEVGHFENALEIPADTFREQLPKAVEMMQAHKDKKIVMYCTGGIRCEKASAWMKHNGFNKVWHIEGGIIEYARKAREQGLPVRFIGKNFVFDERMGERISDEIIAHCHQCGAPCDSHTNCKNDGCHLLFIQCPVCAEKYKGCCSEICCEESALPPEEQRRRRAGRENGNKIFNKSRGRLNTTLGIPDPTE | not soluble
2 | MDSPQYLFLDFEFTMPETKTNPDGFCPEIIEVGLVAVVDDQIIGQFSSYVKPLRFPQLTERCKSFLNITQEQIDRGMSFYELVSLLRQYDRDRPTTVMTWGSMDMKVLRENCQSARVEFPFTGEHRDLAMEYKRFFGNKNQTALRKAVQEYGNEAVGKAHCALDDAFTAYTIFRLVENDKKYLAKTKPPTIGERIDLSQLRKKFAL | not soluble
3 | SAFQAAAARLGAPVSHDFCAISLSDLMTPWEVIEKRIEAAASADFVTAVYNPRSRDRYWQIHRFRELFLRHRSPSTPVGIVRNVTRKDESVVLTTLGEFDPDSLDMFTMMLVGNSTTF | not soluble
4 | MKRCLDKGKTMDALKHALQMLNEMRTAELSPKFYYRLYMDSMHELQCLEVNLVQEYAQEPAKLGNLYECVQYASAIIPRLYLLVTIGGVFIKCGLGSRKEILKDLVEMCRGVQHPLRGLFLRNYLMQCTRSVLPDFPETEEMLVAHNDNLSKGTPKLKPRDGTVDDTIDFVLINFAEMNKLWVRMQHQGPSKEKEKREKDRMELRILVGTNLVRLAQLEALTEEMYVKDVLPSILEQIVSCRDPISQEYLMECVIQVFADDFHLATLTEFLNACGQLQQDVNIKILLIALVDRLALYTTSYNEGQPAPTKMQLFEIFSEQATTLIKNRPDMPLDDIVALHVSLVSLAVKCYPDRQDYANMTFQGLRQVIEEKGVTDIEAFGKVGRELTKLLNIPIDEYKNVLRLSQLPEYIKVMNYFDYRGQCNIASYMIQNMLEEETVFRNQDDVDSAFSLISSLLKDQEKQSSDSHETEEFADEQNLVARLLHLIRADDVDSQFLLLNSARKTLGEGGRHRLRYTLPPIIFELYRLVLQFSDMKDEDDKWDAKIRKMFVCAMGTIGALVSTAELAELPMKLYLNGAITADRVPFEDNHTVVYEFVSKALSILEDDVVDSRDRVRCLHLTVGTLLKTTHLPEENWQPLANQTVLAAAKMFKKPDQVRSLVTVAALYWHGQTLETNGEKMKNGKKVVDILRKAAKIARECLEPLVQQQLFIQLLSAYTYYYEDNCSEVNVDHIEELIARTQDNAVQLDVSAEADSLEKQLGEAIRRLQLAKLDVAAAQATTIRSEPELPQPPS | soluble
5 | MRGSHHHHHHTDPHASSVPLEWPLSSQSGSYELRIEVQPKPHHRAHYETEGSRGAVKAPTGGHPVVQLHGYMENKPLGLQIFIGTADERILKPHAFYQVHRITGKTVTTTSYEKIVGNTKVLEIPLEPKNNMRATIDCAGILKLRNADIELRKGETDIGRKNTRVRLVFRVHIPESSGRIVSLQTASNPIECSQRSAHELPMVERQDTDSCLVYGGQQMILTGQNFTSESKVVFTEKTTDGQQIWEMEATVDKDKSQPNMLFVEIPEYRNKHIRTPVKVNFYVINGKRKRSQPQHFTYHPV | soluble
6 | MSAGPIVERNQDATIYVGGLDEKVSESILWELMVQAGPVVSVNMPKDRVTANHQGFGFVEFMGEEDADYAIKILNMIKLYGKPIKVNKASAHEKNMDVGANIFVGNLDPEVDEKLLYDTFSAFGVILQVPKIMRDVDSGTSKGFAFINFASFEASDTALEAMNGQFLCNRAITVSYAFKRDSKGERHGTAAERMLAAQNPLFPKDRPHQVFSDVPLGVPANTPLAMPGVHAAIAAHATGRPGYQPPPLMGMAQSGYQGQYPPVPPPPPSVTPMPPPMPPTPGMTPRPPPPPSSGMWPPPPPPPPGRTPGPPGMPGMPPPPPPSRFGPPGMGGMPPPPPPGMRYPGGMPPPPPPRYPSAGPGMYPPPPPSRPPAPPSGHGMIPPPPPPS | not soluble
7 | MSLEFFMAKADNPAFEQGQSPRMRLPDSVPLLIVGGGIMGLWAAVKAERLGIGTLLVEAGRLGGGASGGLLGALMPHMPDRWSDKKQFQFDALVALEAEIAGLEAETGLSGGYRRCGRIIPLPKPHLRGIAERHERDAAENWRSGERRFQWHVGERPSVAGWVDDAAGEAGFVFDTLAARVSPRALIALLSAFLRKARHVQVAEGCRVVSLDADAGRAALSSGEEISFGHVVVANGHESFPLIRDALGLEAGVALGQAVKGQAALLDASADPAMPVVFLNGLYIVPHEDGTVAIGSTSEDCFSEPFSTDEKLEKLLVDACTVVPSLAGAPVLERWAGLRPKAVGRDPMVGAMAGTAKLVALSGGFKVSFGLAHFLADAALETVCGHTPVIPSGFRLQEHVSIAVPDFRKFLEHHHHHH | not soluble
8 | GPGSMLLPRTDSHDPDANDADPRSSSSAPSVSAPALSFTTTADALASTPLSNTNPCAAYTWLPDTRSTAPPDATTRALAYNAYSPPSTAASSATPPPTSSSTAPSTTTVRPPVITVTRATPDTTSTDRTSRRPDSTSTGAYGEDCEPGRYTSGVDLAATSRESVTVSTDPAGNVPVSTSAPFSAST | soluble
9 | MSLNNQDISIGKLSRLKIWITDNHLSDDQWSNTKKFIIIKITTEDGIEGWGEAFSINFREKGIAIIIKELFREISNIPNLSIKSFYNKISLLSDGHRGLDFSSATSAIEIALWDISGKLKNLPLNSLLTKSPKPNVPIYATCWSDLKKDTNDYLRQIEKFYGKKYGGIKIYPMLDSLSISIQFVEKVREIVGDELPLMLDLAVPEDLDQTKSFLKEVSSFNPYWIEEPVDGENISLLTEIKNTFNMKVVTGEKQSGLVHFRELISRNAADIFNPDISGMGGLIDIIEISNEASNNGIFISPHCWNSMSVSASAMLHVCSSIPNSEKAEIFPDYINFSKKFCELPFDIIDNKAHINKSAGLGIVIHEDILSELSIYSLDEKSNDEGHHHHHH | soluble
10 | MSSHHHHHHMQFDVTIEIPKGQRNKYEVDHETGRVRLDRYLYTPMAYPTDYGFIEDTLGDDGDPLDALVLLPQPVFPGVLVAARPVGMFRMVDEHGGDDKVLCVPAGDPRWDHVQDIGDVPAFELDAIKHFFVHYKDLEPGKFVKAADWVDRAEAEAEVQRSVERFKAGTH | soluble
11 | SMRPPIVIHSSGKKYGFSLRAIRVYMGDSDVYTVHHVVWSVEDGSPAQEAGLRAGDLITHINGESVLGLVHMDVVELLLKSGNKISLRTTALENTETSV | soluble
12 | MSLSKEKEVLLNEEIRADEIRCVGDDGKVYGIISSDEALEIANRLGLDLVMIAADAKPPVCKIMDYGKFRYQQEKKQKEAKKKQKVIDIKEIKLSVKIAQNDINYKVKHALEFLEQGKHVRFRVFLKGREMATPEAGVALLEKIWTMIENEANRDKEPNFEGRYVNMLVTPKKAEGHHHHHH | soluble
13 | RYTNILVPVDSSDAAQAAFTEAVNIAQRHQANLTALYVVDDSAYHTPALDPVLSELLDAEAAHAKDAMRQRQQFVATTSAPNLKTEISYGIPKHTIEDYAKQHPEIDLIVLGATGTNSPHRVAVGSTTSYVVDHAPCNVIVIR | soluble
14 | GPLGSGMRFMPVQSNFVINHGKLTNQLLQAVAKQTRNGDTQQWFQQEQTTYISRTVNRTLDDYCRSNNSVISKETKGHIFRAVENALQQPLDMNGAQSSIGHFLQSNKYFNQKVDEQCGKRVDPITRFNTQTKMIEQVSQEIFERNFSGFKVSEIKAITQNAILEHVQDTRL | soluble
15 | MPAILSRVAPRTFNLVGSRLMASAARLETVPREEIHKEYDRKKTFYHRDLEIQLAGPTQLKTKPLDPTKLKFGHTYADYMMTCDWDAERGWHHPKIEPIGELKIHPGAKVLHYASELFEGMKAYRGIDNKIRMFRPEMNMARMKRTALRAALPDFDSEEMINVLTELLRLDQEWVPNSDVCSLYLRPTLIGTDPTLGVGCATEAKMFVITGPVGAYYSTGFQPVSLLADSRFIRAFPGGVGAYKMGCNYAPTIWVGKEAASKNCQQVLWLYGENEDLTEVGTMNIFLFWKNEEGDMELITPPLHRGLILPGVTRDSLLELGREWGEYKVTERTLNMEEVKKALSEKRLYEMFGSGTACVVSPVGKILYHNKVTDEYEELHIPTMSSKFGVMQKFYNTINDIQYGRIIKDGWMRDI | not soluble
16 | MGSDKIHHHHHHMMQLQVNATEIKTVYEQQLFNGKNFHVFIYNKTESVTGLHQHDYYEFTLVLTGRYYQEINGKRVLLERGDFVFIPVGSNHQSFYEFGATRILNVGISKRFFEQHYLPLLPFCFVASQVYRANSTFLTYIETVIASLNFRGNGLDEFIEVVTFYIINRLRHYREEQVYDDIPQWLKATVEIMHDKTQFGEHALENMVRLSAKSQEYLTRATRRYYSKTPMQIINEIRINFAKKQLEMTNYSVTDIAYEAGYSSPSLFIKTFKKMTSFTPNSYRKRLTEINE | not soluble
17 | MGKKKSDTASGGAIPEGDNEKGKKIFKQRCEQCHVVNSLQTKTGPTLNGVIGRQSGQVAGFDYSAANKNKGVVWDRQTLFDYLADPKKYIPGTKMVFAGLKKADERADLIKFIEVEAAKKPSA | not soluble
18 | MNPKFRSFFSKNAEIFRFSLSENPEIFRFSRHFSMKSFYDIIEIDEIATFDDVKKAYFRFLRKDNRPIYDSWLREQRLRETQGTIGETIELEYGERDVDEYCRKKIPKKNIFSKKKKRFFRTFSNRPNPRHGNLRVLLVLPLSRNPSLLHHHHHPRHPLKKMSSLDESSTKILVLGDSCVGKTSLCHCIAGGGEPPGGGRSFDSTIGATVVMAWHEYRAGTPEQRTELLELWDIGGMVAHRQAAQVFFEGAVGAILVHDLTNKRSEENLATWLTMLDGKPRGAAPKSSKDPAAVALKVDIESCNIPVLIVGTKADLVPHKGPVSYDRYDGLGNANSAISVWKPRNRRKNSKKPMKIGRKLVVEKEKVKKFGRQYLRRGLGFSFSSARWHKEMTEARNVQKSMKMVIFRLFSMGGRN | not soluble
19 | MYPDDSLTLHTDLYQINMMQVYFDQGIHNKKAVFEVYFRQQPFKNGYAVFAGLERIVNYLEDLRFSDSDIAYLESLGYHGAFLDYLRNFKLELTVRSAQEGDLVFANEPIVQVEGPLAQCQLVETALLNIVNYQTLVATKAARIRSVIEDEPLMEFGTRRAQEMDAAIWGTRAAVIGGANGTSNVRAGKLFDIPVLGTHAHALVQVYGNDYEAFKAYAATHKNCVFLVDTYDTLRIGVPAAIQVARELGDQINFMGVRIDSGDIAYISKKVRQQLDEAGFTEAKIYASNDLDENTILNLKMQKAKIDVWGVGTKLITAYDQPALGAVYKIVAIEDETGQMRNTIKLSNNAEKVSTPGKKQVWRITSREKGKSEGDYITYDGVDISDMTEIKMFHPTYTYIKKTVRNFDAVPLLVDIFKEGILVYNLPSLTDIQDYARKEFDKLWDEYKRVLNPQHYPVDLARDVWQDKMDLIDKMRKEALGEGEEE | not soluble
20 | MTQFNPVDHPHRRYNPLTGQWILVSPHRAKRPWQGAQETPAKQVLPAHDPDCFLCAGNVRVTGDKNPDYTGTYVFTNDFAALMSDTPDAPESHDPLMRCQSARGTSRVICFSPDHSKTLPELSVAALTEIVKTWQEQTAELGKTYPWVQVFENKGAAMGCSNPHPHGQIWANSFLPNEAEREDRLQKEYFAEQKSPMLVDYVQRELADGSRTVVETEHWLAVVPYWAAWPFETLLLPKAHVLRITDLTDAQRSDLALALKKLTSRYDNLFQCSFPYSMGWHGAPFNGEENQHWQLHAHFYPPLLRSATVRKFMVGYEMLAETQRDLTAEQAAERLRAVSDIHFRESGV | soluble
